According to patent US20250090677A1, “ANTI-CDH6 ANTIBODIES AND ANTIBODY-DRUG CONJUGATES THEREOF” (MULTITUDE THERAPEUTICS INC., priority 2021, published 2025):

T1: recombinant protein CDH6 (Homo sapiens, UniProt P55285)
T1 construct: CDH6 extracellular region (Ser 54-Ala 615) was used as an immunogen; purchased ACRO Biosystems CA6-H5229
T1 sequence (P55285 54-615): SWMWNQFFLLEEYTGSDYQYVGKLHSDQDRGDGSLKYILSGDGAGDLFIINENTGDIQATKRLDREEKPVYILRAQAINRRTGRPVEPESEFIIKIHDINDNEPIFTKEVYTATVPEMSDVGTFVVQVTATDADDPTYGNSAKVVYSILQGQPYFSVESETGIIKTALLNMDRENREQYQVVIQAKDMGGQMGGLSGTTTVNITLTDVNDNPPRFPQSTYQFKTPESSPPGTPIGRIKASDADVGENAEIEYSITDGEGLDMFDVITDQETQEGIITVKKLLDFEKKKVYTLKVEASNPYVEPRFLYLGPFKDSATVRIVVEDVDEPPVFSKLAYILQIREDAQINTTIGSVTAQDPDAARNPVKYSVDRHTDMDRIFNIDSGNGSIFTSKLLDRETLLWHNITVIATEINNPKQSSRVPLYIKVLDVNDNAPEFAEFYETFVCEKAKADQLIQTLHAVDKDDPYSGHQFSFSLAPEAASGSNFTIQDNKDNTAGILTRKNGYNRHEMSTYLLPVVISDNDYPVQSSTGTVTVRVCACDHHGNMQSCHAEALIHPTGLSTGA

B1: DS-6000a (conjugate, chains of the INN, looked up)
VH: EVQLVQSGAEVKKPGASVKVSCKASGYTFTRNFMHWVRQAPGQGLEWMGWIYPGDGETEYAQKFQGRVTITADTSTSTAYMELSSLRSEDTAVYYCARGVYGGFAGGYFDFWGQGTLVTVSS
VL: DIQMTQSPSSLSASVGDRVTITCKASQNIYKNLAWYQQKPGKAPKLLIYDANTLQTGVPSRFSGSGSGSDFTLTISSLQPEDFATYFCQQYYSGWAFGQGTKVEIK
modifications: deruxtecan payload
B2: CL069463: mouse anti-CDH6 monoclonal antibody; VH SEQ ID NO: 41, VL SEQ ID NO: 46 (antibody, V domains shown)
VH: EVQLVESGGGLVQPKGSLKLSCAASGFTFNTYALTWVRQAPGKGLEWVGRIKSKNKDYETYYADSVKDRFTISRNDSQSLLYLQMNNLKTEDTAIYYCVRQNWNYFDYWGQGTTLTVSS
VL: DIQMTQSPASLAASVGETVTITCRASENIYYSLAWYQQRQGKSPQLLIYNANSLKDGVPSRFSGSGSGTQYSMKINSMQPEDTATYFCQQAYDVPPTFGGGTKLEIK
modifications: CL069463 VH; Ch069463 VH; CL069463 VL; Ch069463 VL
B3: CL069707: mouse anti-CDH6 monoclonal antibody; VH SEQ ID NO: 18, VL SEQ ID NO: 23 (antibody, V domains shown)
VH: EVHLVESGGGLVQPKGSLKLSCVASGFTFTTYAMNWVRQAPGKGLEWVARIRIKNNNYATYYADSVTDRFTISRDDSQSMLYLQMNNLKTEDTAMYYCVRPDYGNYGLAYWGQGTLVTVSA
VL: EIVLTQSPTTMAASPGEKITITCSASSSISSHYLHWYQQKPGFSPKLLIYRSFYLASGVPLRFTGSGSGTSYSLTIGTMEAEDVATYYCQQDIVPLTFGAGTKLELK
modifications: CL069707 VH; Ch069707 VH; CL069707 VL; Ch069707 VL
B4: CL069066: mouse anti-CDH6 monoclonal antibody; VH SEQ ID NO: 95, VL SEQ ID NO: 96 (antibody, V domains shown)
VH: EVKLLESGGGLVQPGGSLKLSCAASGFDFSRYWMTWVRQAPGKGLEWIGEINPDSSTINYTPSLKDKFIISRDNAKNTLYLQMNKVTSEDTALYYCTRRPHYYGYFDSWGQGTTLTVSS
VL: DIVLTQSPASLAVSLGQRATISCRASESVEYYGTTLMQWYQQKPGQPPQLLIYAGSNVESGVPARFSGSGSGTEFSLNIHPVEEDDIGMYFCQQSRKVPWTFGGGTKLEIK
modifications: CL069066 VH; Ch069066 VH; CL069066 VL; Ch069066 VL
B5: CL069439: mouse anti-CDH6 monoclonal antibody; VH SEQ ID NO: 103, VL SEQ ID NO: 104 (antibody, V domains shown)
VH: EVQLQQSGTELVRTGASVKISCKASGYSFTGYYIHWIKQSHGESLEWIGYISCFNGDTSYNQNFKDRATFNVDTSSSTAYMQFISLTSEDSAVYYCVRGRYGNFNYFDYWGQGTTLTVSS
VL: DIVLTQSPASLAVSLGQRATISCRASESVEFYGTSLMQWFQQKPGHPPQLLIYATSNVDSGVPARFSASGSGTDFSLNIHPVEEADIAMYFCQQSRRIPWTFGGGTKLEIK
modifications: CL069439 VH; Ch069439 VH; CL069439 VL; Ch069439 VL

Experiments:
[1] = Hydrophilicity of antibody-drug conjugate by HIC-HPLC (common procedure H); format: physicochemical; details: shorter retention time = better hydrophilicity
Excerpt: The Hydrophilicity of the antibody-drug conjugate can be determined by hydrophobic interaction chromatography (HIC) in high-performance liquid chromatography (HPLC) analysis using the following method. • HPLC system: Agilent 1260 Infinity II HPLC system (Agilent Technologies, Inc.) • Detector: Ultraviolet absorption spectrometer (measurement wavelength: 280 nm) • HIC-Column: TOSOH TSKgel Butyl-NPR (4.6 mm I.D.×3.5 cm, 2.5 μm) • Mobile phase A: 1.5 mol/L (NH4)2SO4, 50 mmol/L KHPO4, pH7.0 • Mobile phase B: 50 mmol/L KHPO4, 25% (v/v) isopropanol, pH7.0 • Isocratic Operation: 25 min • Column temperature: room temperature • Gradient program (B %): 0%-25% (0 min-1 min), 25% (1 min-3 min), 25%-80% (3 min-13 min), 80% (13 min-17 min), 80%-0% (17 min-17.10 min), 0% (17.10 min-25 min) • Sample injection: 10 μL
It is confirmed that the shorter the retention time, the better of the sample's hydrophilicity

[2] = system: Renal Carcinoma Patient-Derived Xenograft (PDX); experiment: In vivo antitumor effect in renal carcinoma patient-derived xenograft (PDX) model; design: species or system mice; details: 10 mg/kg intravenous, compared with IgG-LP1 or IgG-GGFG-DXd, FIG. 21A
Protocol: 6-8 weeks Nu/Nu mice were purchased from Zhejiang Charles River Co., Ltd. The tumors were sliced into 3 mm×3 mm×3 mm (about 50-90 mg) fragments and implanted subcutaneously into the right flank of mice. Then the animals were checked daily for tumor growth and body weight. The mice were randomized into 5 groups when mean tumor volume reaches ˜150 mm^3. The grouping day was regarded as day 0. Mice were then injected intravenous with 10 mg/kg of one of the following substances:10 mg/kg IgG-LP1, CL069707-H1L1-LP1, IgG-GGFG-DXd, Reference ADC and Reference Antibody-LP1. Tumor volumes were measured two times per week from day of treatment initiation by Caliper and calculated as follows: […].

[3] = Aggregation of antibody-drug conjugate by SEC-HPLC (common procedure G); format: physicochemical
Excerpt: The aggregation in the antibody-drug conjugate can be determined by size exclusion chromatography (SEC) in high-performance liquid chromatography (HPLC) analysis using the following method. • HPLC system: Agilent 1260 Infinity II HPLC system (Agilent Technologies, Inc.) • Detector: Ultraviolet absorption spectrometer (measurement wavelength: 280 nm) • SEC-Column: TOSOH TSKgel G3000SWXL (7.8×300 mm, 5 μm) • Mobile phase: 200 mmol/L KHPO4, 150 mmol/L NaCl, 15% (v/v) isopropanol, pH7.0 • Flow rate: 0.75 mL/min • Isocratic Operation: 18 min • Column temperature: room temperature • Sample injection: 50 μg
The SEC chromatogram of quality control (QC, CL069707-H1L1) was shown in FIG. 5A, it is confirmed that the molecular weight of the main QC product is about 150 kDa and the monomer retention time is around 9.5-10.5 min. Meanwhile, the retention time of aggregation is earlier than that of monomer.

[4] = target: T1, recombinant protein CDH6; experiment: ELISA binding activity of mouse monoclonal antibodies to CDH6 recombinant protein; details: CDH6 coated 1 μg/mL, FIG. 23
Protocol: The recombinant protein CDH6 was coated on ELISA plates at 1 μg/mL overnight at 4° C.; after being washed with PBST, the plate was added with 10% fetal bovine serum, and the mixture was blocked at 37° C. for 1 h; the plate was added with 13 monoclonal antibodies of CDH6 with different dilutions (0.1 ng/mL to 100 ng/mL), and the mixture was reacted at 37° C. for 1 h; after being washed with PBST, the plate was added with horseradish peroxidase-labeled goat anti-human IgG secondary antibody (Goat anti Mouse (HRP), Thermo Fisher Scientific), and the mixture was reacted at 37° C. for 30 min; after the plate was repeatedly washed with PBST 5 times, the remaining droplets on the absorbent paper were patted as much as possible; each well of the plate was added with 100 μL of TMB (eBioscience) and placed in the dark at room temperature (20±5° C.) for 1.5 min; each well of the plate was added with 100 μL of 2 N H2SO4 stop buffer for stopping substrate reaction, OD values at 450 nm were read using a microplate reader, and the binding ability of the antibody to the target antigen CDH6 was analyzed. As shown in Table 1 and FIG. 23, the sensitivity of the anti-CDH6 antibody and CDH6 recombinant protein of the present application was not more than 12.5 ng/mL, wherein #13 (CL069463 antibody) was not more than 3.125 ng/mL, #23 (CL069707 antibody) was not more than 1.56 ng/mL, #4 (CL069066 antibody) was not more than 6.3 ng/mL, and #16 (CL069439 antibody) was not more than 1.0 ng/mL.

[5] = system: OVCAR-3 cells (human ovarian cancer cells); experiment: Flow cytometry recognition of cell-surface CDH6, OVCAR-3 positive cells; format: binding; details: antibody diluted to 20 μg/mL, FCM, FIG. 24
Protocol: (§1) The binding of 13 CDH6 monoclonal antibodies to CDH6 on the cell surface was analyzed by Flow cytometry (FCM) using OVCAR-3 cells (human ovarian cancer cells) as positive cells and HepG2 cells (human hepatoma cells) as negative cells. Cells in the logarithmic growth phase were collected, adjusted to a cell density of 5×10^6 cells/mL, and pre-cooled on ice. 13 CDH6 monoclonal antibodies were diluted to 20 μg/mL in 2% FBS-containing pre-cooled saline. 100 μL of cells were taken and added with an equal volume of the diluted CDH6 monoclonal antibodies described above, and the mixture was reacted at 4° C. for 30 min in the dark. After the reaction was completed, the cells were washed twice with […] pre-cooled saline (6000 rpm, 45 s). The secondary antibody PE anti-mouse IgG (BD Pharmingen) was diluted at 1:500 with 2% FBS-containing pre-cooled saline, and each of the washed cells were resuspended with 100 μL of diluted secondary antibody and reacted for 30 min at 4° C. in the dark. After the reaction was completed, the cells were washed twice with 2% FBS-containing pre-cooled saline (6000 rpm, 45 s). The cells were resuspended in 400 μL of saline. The flow cytometer (BD Calibur) was used to analyze the binding ability of antibodies to cell surface antigens.

[6] = system: HepG2 cells (human hepatoma cells); experiment: Flow cytometry, HepG2 negative cells; format: binding; details: antibody diluted to 20 μg/mL, FCM
Protocol: as §1

Row | Molecule | retention time of the antibody-drug conjugate measured by common procedure H [1] [min] | tumor volume / tumor growth inhibition [2] | aggregation of the antibody-drug conjugate measured by common procedure G [3] [%] | sensitivity of the anti-CDH6 antibody and CDH6 recombinant protein (ELISA) [4] | specific recognition of OVCAR-3 cells (positive cells) [5] | binding to negative cells HepG2 [6]
1 | B1 | 7.672 | no tumor growth inhibition activity | 2.68 | – | – | –
2 | B2 | – | – | – | not more than 3.125 ng/mL | capable of specifically recognizing | no binding was observed
3 | B3 | – | – | – | not more than 1.56 ng/mL | capable of specifically recognizing | no binding was observed
4 | B4 | – | – | – | not more than 6.3 ng/mL | – | –
5 | B5 | – | – | – | not more than 1.0 ng/mL | – | –
